The values below come from publication PMC10903754, “o-Vanillin binds covalently to MAL/TIRAP Lys-210 but independently inhibits TLR2” (Journal of Enzyme Inhibition and Medicinal Chemistry, 2024).

The data set concerns the molecule itself. Put plainly: turbidity assay; MAL^TIR ~87.5-103 uM in 10 mM HEPES pH 7.5, 150 mM NaCl, 30 °C; filament formation followed by absorbance at 500 nm over time; with or without o-vanillin and analogues.

B1: TIR domain of human MAL/TIRAP (MAL^TIR), residues 79-221 (domain or fragment, UniProt P58753 79-221, looked up)
chain: SSRWSKDYDVCVCHSEEDLVAAQDLVSYLEGSTASLRCFLQLRDATPGGAIVSELCQALSSSHCRVLLITPGFLQDPWCKYQMLQALTEAPGAEGCTIPLLSGLSRAAYPPELRFMYYVDGRGPDGGFRQVKEAVMRYLQTLS
notes: MAL (MyD88 adaptor-like protein; TIRAP), human, TIR domain, residues 79-221; construct in the vector pMCSG7; For the NMR work the same construct was 13C-15N labelled and kept in low-salt buffer (10 mM HEPES pH 7.5, 10 mM NaCl); also called WT MAL^TIR; MyD88 adaptor-like protein TIR domain; source: E. coli BL21 (DE3), purified (Ni IMAC, TEV cleavage, SEC Superdex 75)
B1: the binding result was “binds”.
